The results in this text go back to patent US20180282386A1 (REGENTS OF THE UNIVERSITY OF MINNESOTA, published 2018).

Experiment [1] addresses EpCAM on HT-29 cells (human) (UniProt P16422). The experiment is described as follows: flow cytometry, direct binding to CD33- EpCAM+ HT-29 cells (specificity control), 4 µg drug.
Another experiment has as its target T1, CD133 on Caco-2 cells (human, UniProt O43490 20-865).
T1 construct: whole, on cells; also called prominin-1
T1 sequence (looked up): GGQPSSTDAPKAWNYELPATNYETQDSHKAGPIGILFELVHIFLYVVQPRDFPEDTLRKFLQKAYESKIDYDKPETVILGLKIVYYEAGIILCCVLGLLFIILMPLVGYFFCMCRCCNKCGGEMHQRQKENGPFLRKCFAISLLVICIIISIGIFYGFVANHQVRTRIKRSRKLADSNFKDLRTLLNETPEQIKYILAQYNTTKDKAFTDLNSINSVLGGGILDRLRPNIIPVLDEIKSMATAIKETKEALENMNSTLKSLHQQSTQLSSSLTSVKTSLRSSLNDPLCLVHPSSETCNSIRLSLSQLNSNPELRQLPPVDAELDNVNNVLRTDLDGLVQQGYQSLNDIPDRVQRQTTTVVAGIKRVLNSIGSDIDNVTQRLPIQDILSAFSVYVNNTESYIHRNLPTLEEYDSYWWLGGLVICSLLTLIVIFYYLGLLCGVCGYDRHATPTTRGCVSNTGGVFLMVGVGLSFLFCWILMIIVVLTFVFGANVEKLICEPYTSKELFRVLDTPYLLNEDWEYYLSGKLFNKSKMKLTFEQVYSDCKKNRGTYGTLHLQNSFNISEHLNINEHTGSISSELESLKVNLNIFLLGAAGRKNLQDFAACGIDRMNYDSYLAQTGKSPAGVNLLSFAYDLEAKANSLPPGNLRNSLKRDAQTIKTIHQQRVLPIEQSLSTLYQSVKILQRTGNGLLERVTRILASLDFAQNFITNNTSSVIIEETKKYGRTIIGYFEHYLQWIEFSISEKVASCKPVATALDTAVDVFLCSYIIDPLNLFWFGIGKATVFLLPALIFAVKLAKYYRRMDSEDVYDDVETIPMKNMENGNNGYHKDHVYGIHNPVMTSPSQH
The experiment is described as follows: flow cytometry on Caco-2 cells, competition with FITC-labeled 1615133 TriKE. Background: In flow cytometry, cells or beads pass a laser one at a time.

Sequence of EpCAM on HT-29 cells (human) (P16422 24-314): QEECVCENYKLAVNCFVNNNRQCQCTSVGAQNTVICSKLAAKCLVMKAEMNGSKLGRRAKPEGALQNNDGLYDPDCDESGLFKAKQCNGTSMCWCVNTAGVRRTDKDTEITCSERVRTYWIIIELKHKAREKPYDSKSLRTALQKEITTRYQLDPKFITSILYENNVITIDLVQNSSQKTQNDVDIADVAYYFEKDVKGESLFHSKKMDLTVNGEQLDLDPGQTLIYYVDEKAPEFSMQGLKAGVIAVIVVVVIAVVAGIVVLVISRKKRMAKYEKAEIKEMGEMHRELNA

B1: 1633 bispecific killer engager (BiKE) (bispecific antibody)
chain: MEVQLVESGGGVVRPGGSLRLSCAASGFTFDDYGMSWVRQAPGKGLEWVSGINWNGGSTGYADSVKGRFTISRDNAKNSLYLQMNSLRAEDTAVYYCARGRSLLFDYWGQGTLVTVSRGGGGSGGGGSGGGGSSELTQDPAVSVALGQTVRITCQGDSLRSYYASWYQQKPGQAPVLVIYGKNNRPSGIPDRFSGSSSGNTASLTITGAQAEDEADYYCNSRDSSGNHVVFGGGTKLTVLPSGQAGAAASESLFVSNHAYQVQLVQSGAEVKKPGSSVKVSCKASGYTFTDYNMHWVRQAPGQGLEWIGYIYPYNGGTGYNQKFKSKATITADESTNTAYMELSSLRSEDTAVYYCARGRPAMDYWGQGTLVTVSSGGGGSGGGGSGGGGSDIQMTQSPSSLSASVGDRVTITCRASESVDNYGISFMNWFQQKPGKAPKLLIYAASNQGSGVPSRFSGSGSGTDFTLTISSLQPDDFATYYCQQSKEVPWTFGQGTKVEIK
modifications: FITC label (site not stated)
B1: the % Positive Cells in experiment [1] stood at 1%.

B2: anti-CD133 scFv (scFv)
scFv: MDIVLSQSPAIMSASPGEKVTISCSASSSVSYMYWYQQKPGSSPKPWIYRTSNLASGVPARFSGSGSGTSYSLTISSMEAEDAATYYCQQYHSYPPTFGAGTKLELKSSGGGGSGGGGGGSSRSSLEVKLVESGPELKKPGETVKISCKASGYTFTDYSMHWVNQAPGKGLKWMGWINTETGEPSYADDFKGRFAFSLETSASTAYLQINNLKNEDTATYFCATDYGDYFDYWGQGTTLTVSS
notes: also called monomeric CD133 scFv; anti-CD133 scFv from clone 7
For B2, the binding result with CD133 on Caco-2 cells was “binds”.
